In patent US20130171163A1 (published 2013):

B1: GST-cLAR fusion protein (other, UniProt P10586 1285-1907, looked up)
chain: KRKRTHSPSSKDEQSIGLKDSLLAHSSDPVEMRRLNYQTPGMRDHPPIPITDLADNIERLKANDGLKFSQEYESIDPGQQFTWENSNLEVNKPKNRYANVIAYDHSRVILTSIDGVPGSDYINANYIDGYRKQNAYIATQGPLPETMGDFWRMVWEQRTATVVMMTRLEEKSRVKCDQYWPARGTETCGLIQVTLLDTVELATYTVRTFALHKSGSSEKRELRQFQFMAWPDHGVPEYPTPILAFLRRVKACNPLDAGPMVVHCSAGVGRTGCFIVIDAMLERMKHEKTVDIYGHVTCMRSQRNYMVQTEDQYVFIHEALLEAATCGHTEVPARNLYAHIQKLGQVPPGESVTAMELEFKLLASSKAHTSRFISANLPCNKFKNRLVNIMPYELTRVCLQPIRGVEGSDYINASFLDGYRQQKAYIATQGPLAESTEDFWRMLWEHNSTIIVMLTKLREMGREKCHQYWPAERSARYQYFVVDPMAEYNMPQYILREFKVTDARDGQSRTIRQFQFTDWPEQGVPKTGEGFIDFIGQVHKTKEQFGQDGPITVHCSAGVGRTGVFITLSIVLERMRYEGVVDMFQTVKTLRTQRPAMVQTEDQYQLCYRAALEYLGSFDHYAT
notes: domain: cytoplasmic LAR (cLAR); The fusion was immobilized on glutathione-Sepharose beads and incubated with HUVEC lysates; not shown: Glutathione-S-transferase (GST) tag
B2: VEGFR3 (receptor, human, UniProt P35916 25-1363, looked up)
chain: YSMTPPTLNITEESHVIDTGDSLSISCRGQHPLEWAWPGAQEAPATGDKDSEDTGVVRDCEGTDARPYCKVLLLHEVHANDTGSYVCYYKYIKARIEGTTAASSYVFVRDFEQPFINKPDTLLVNRKDAMWVPCLVSIPGLNVTLRSQSSVLWPDGQEVVWDDRRGMLVSTPLLHDALYLQCETTWGDQDFLSNPFLVHITGNELYDIQLLPRKSLELLVGEKLVLNCTVWAEFNSGVTFDWDYPGKQAERGKWVPERRSQQTHTELSSILTIHNVSQHDLGSYVCKANNGIQRFRESTEVIVHENPFISVEWLKGPILEATAGDELVKLPVKLAAYPPPEFQWYKDGKALSGRHSPHALVLKEVTEASTGTYTLALWNSAAGLRRNISLELVVNVPPQIHEKEASSPSIYSRHSRQALTCTAYGVPLPLSIQWHWRPWTPCKMFAQRSLRRRQQQDLMPQCRDWRAVTTQDAVNPIESLDTWTEFVEGKNKTVSKLVIQNANVSAMYKCVVSNKVGQDERLIYFYVTTIPDGFTIESKPSEELLEGQPVLLSCQADSYKYEHLRWYRLNLSTLHDAHGNPLLLDCKNVHLFATPLAASLEEVAPGARHATLSLSIPRVAPEHEGHYVCEVQDRRSHDKHCHKKYLSVQALEAPRLTQNLTDLLVNVSDSLEMQCLVAGAHAPSIVWYKDERLLEEKSGVDLADSNQKLSIQRVREEDAGRYLCSVCNAKGCVNSSASVAVEGSEDKGSMEIVILVGTGVIAVFFWVLLLLIFCNMRRPAHADIKTGYLSIIMDPGEVPLEEQCEYLSYDASQWEFPRERLHLGRVLGYGAFGKVVEASAFGIHKGSSCDTVAVKMLKEGATASEHRALMSELKILIHIGNHLNVVNLLGACTKPQGPLMVIVEFCKYGNLSNFLRAKRDAFSPCAEKSPEQRGRFRAMVELARLDRRRPGSSDRVLFARFSKTEGGARRASPDQEAEDLWLSPLTMEDLVCYSFQVARGMEFLASRKCIHRDLAARNILLSESDVVKICDFGLARDIYKDPDYVRKGSARLPLKWMAPESIFDKVYTTQSDVWSFGVLLWEIFSLGASPYPGVQINEEFCQRLRDGTRMRAPELATPAIRRIMLNCWSGDPKARPAFSELVEILGDLLQGRGLQEEEEVCMAPRSSQSSEEGSFSQVSTMALHIAQADAEDSPPSLQRHSLAARYYNWVSFPGCLARGAETRGSSRMKTFEEFPMTPTTYKGSVDNQTDSGMVLASEEFEQIESRHRQESGFSCKGPGQNVAVTRAHPDSQGRRRRPERGARGGQVFYNSEYGELSEPSEEDHCSPSARVTFFTDNSY
notes: Endogenous protein in HUVEC lysates, with or without VEGF treatment (20 ng/ml, 10 min)

Legend:
VEGFR3 = biological target: B2; assay: GST pulldown from HUVEC lysates, Western blot with anti-VEGFR3
Procedure: (§1) C, Lysates from HUVECs stimulated with or without VEGF (20 ng/ml) for 10 min were immunoprecipitated with polyclonal antibodies against anti-cLAR or control goat IgG, followed by immunoblotting with anti-VEGFR2 (top), VEGFR3 (middle) or anti-cLAR antibody (bottom). D, Equal amounts of GST or GST-cLAR fusion protein were immobilized on glutathione-Sepharose beads and then incubated with HUVEC lysates containing equal amount of protein. GST or GST-cLAR-associated proteins were analyzed by Western blotting using anti-IGF-1Rβ antibody. The same membrane was reprobed with anti-GST antibody (E), anti-VEGFR2 (F, top) or anti-VEGFR3 (F, bottom) antibodies.

VEGFR2 = biological target: T1, VEGFR2 (human, UniProt P35968 20-1356); assay: GST pulldown from HUVEC lysates, Western blot with anti-VEGFR2
T1 construct: Endogenous protein in HUVEC lysates, with or without VEGF treatment (20 ng/ml, 10 min)
Procedure: as §1

[1] = biological target: T2, leukocyte antigen-related protein tyrosine phosphatase (LAR) (human, UniProt P10586 30-1907, limits assumed); assay: co-immunoprecipitation from HUVEC lysates with anti-cLAR antibody, Western blot with anti-VEGFR3
T2 construct: Endogenous protein in HUVEC lysates; The background section describes LAR as a non-covalent complex of a 150-kDa E subunit and an 85-kDa P subunit, cleaved from a 200-kDa proprotein; In the functional assays, full-length human LAR was overexpressed from adenovirus (AdLAR) or knocked down with siRNA; also called LAR PTP; leukocyte antigen-related (LAR) PTP
Procedure: as §1

T1 sequence (P35968 20-1356 limits assumed): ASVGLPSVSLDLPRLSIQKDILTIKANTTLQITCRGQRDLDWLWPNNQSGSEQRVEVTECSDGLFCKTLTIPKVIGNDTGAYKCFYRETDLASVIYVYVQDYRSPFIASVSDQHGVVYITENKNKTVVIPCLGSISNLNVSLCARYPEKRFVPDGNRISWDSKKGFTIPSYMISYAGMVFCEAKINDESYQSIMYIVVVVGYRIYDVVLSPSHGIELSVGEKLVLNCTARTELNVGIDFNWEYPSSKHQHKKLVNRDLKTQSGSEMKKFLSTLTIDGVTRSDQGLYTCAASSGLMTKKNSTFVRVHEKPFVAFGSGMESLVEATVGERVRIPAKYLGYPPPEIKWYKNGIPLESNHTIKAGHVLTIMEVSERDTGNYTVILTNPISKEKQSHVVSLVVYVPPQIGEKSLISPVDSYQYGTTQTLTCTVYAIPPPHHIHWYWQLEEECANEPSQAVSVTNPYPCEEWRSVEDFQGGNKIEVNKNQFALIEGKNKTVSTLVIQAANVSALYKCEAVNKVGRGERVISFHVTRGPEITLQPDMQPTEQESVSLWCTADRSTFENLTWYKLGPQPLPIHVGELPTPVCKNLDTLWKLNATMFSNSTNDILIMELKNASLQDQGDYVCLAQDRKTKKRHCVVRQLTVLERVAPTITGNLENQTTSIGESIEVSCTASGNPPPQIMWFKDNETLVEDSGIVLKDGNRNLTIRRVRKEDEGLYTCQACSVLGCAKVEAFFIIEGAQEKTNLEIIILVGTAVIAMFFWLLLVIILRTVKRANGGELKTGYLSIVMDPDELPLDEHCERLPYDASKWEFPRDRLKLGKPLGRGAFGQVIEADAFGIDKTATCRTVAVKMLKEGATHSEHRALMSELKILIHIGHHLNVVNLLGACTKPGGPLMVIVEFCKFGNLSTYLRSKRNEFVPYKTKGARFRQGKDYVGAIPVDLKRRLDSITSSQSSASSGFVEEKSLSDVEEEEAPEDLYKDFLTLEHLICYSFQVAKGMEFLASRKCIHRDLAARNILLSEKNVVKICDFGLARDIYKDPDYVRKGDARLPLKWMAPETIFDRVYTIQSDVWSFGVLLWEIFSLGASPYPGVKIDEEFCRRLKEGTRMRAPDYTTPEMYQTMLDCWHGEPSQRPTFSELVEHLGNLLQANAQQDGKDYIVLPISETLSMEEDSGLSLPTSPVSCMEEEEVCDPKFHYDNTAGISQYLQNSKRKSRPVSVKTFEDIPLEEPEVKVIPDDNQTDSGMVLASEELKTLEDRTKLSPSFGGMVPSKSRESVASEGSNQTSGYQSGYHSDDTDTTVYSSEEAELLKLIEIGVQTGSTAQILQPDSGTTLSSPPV

binding result (VEGFR3)	binding result (VEGFR2)	binding result [1]	Binder
no binding	no binding		B1
		no binding	B2
